Residues, ends and D or L forms follow the SMILES beside them. No end group written: not given here. *: point of attachment. Propyl(3-UDP) = O=c1ccn([C@@H]2O[C@H](COP(=O)(O)OP(=O)(O)OCCC*)[C@@H](O)[C@H]2O)c(=O)[nH]1; Floc = 5(6)-fluorescein carboxamide; Ahx = NCCCCCC(=O)O
Key:
OGT = molecular target: OGT; set-up: method as in PMID 23103942; settings: read-out: Kd of donor substrate; cited from earlier work
[1] = molecular target: human O-GlcNAc transferase (human) (UniProt O15294)
hOGT [2] = molecular target: T1, hOGT (Homo sapiens, UniProt O15294); experiment: fluorescence polarimetry assay, displacement of probe 17 from hOGT; assay type: binding; settings: displacement of 0.75 µM 17 from 0.8 µM hOGT
T1 sequence (O15294 312-1031 isoform O15294-3): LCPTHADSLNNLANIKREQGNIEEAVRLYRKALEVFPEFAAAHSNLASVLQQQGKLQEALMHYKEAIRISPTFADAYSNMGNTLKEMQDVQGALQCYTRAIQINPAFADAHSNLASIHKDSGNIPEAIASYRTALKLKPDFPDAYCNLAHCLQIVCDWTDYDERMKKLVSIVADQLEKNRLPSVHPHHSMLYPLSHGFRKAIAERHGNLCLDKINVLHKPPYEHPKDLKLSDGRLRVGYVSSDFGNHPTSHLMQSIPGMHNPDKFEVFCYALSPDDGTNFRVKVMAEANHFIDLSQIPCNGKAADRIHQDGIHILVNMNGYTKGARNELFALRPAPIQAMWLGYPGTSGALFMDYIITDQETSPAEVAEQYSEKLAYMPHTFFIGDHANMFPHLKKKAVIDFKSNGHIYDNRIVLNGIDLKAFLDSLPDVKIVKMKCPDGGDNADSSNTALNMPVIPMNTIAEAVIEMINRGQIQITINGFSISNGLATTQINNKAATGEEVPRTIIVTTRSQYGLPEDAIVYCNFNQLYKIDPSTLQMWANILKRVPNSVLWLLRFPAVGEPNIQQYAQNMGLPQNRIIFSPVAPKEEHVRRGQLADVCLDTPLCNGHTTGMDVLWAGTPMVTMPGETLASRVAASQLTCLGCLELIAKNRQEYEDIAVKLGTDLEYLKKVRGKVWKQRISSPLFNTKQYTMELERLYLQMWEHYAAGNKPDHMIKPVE
Protocol: The derived values of Ki = 7 ± 2 μM (1) and Ki = 5 ± 2 μM (UDP-5S-GlcNAc) were in agreement with the previously reported affinities,[20],[25] validating this assay.
Next, we used this assay platform to examine the effect of the peptide sequence on the inhibitory potency of the S-linked UDP–peptide conjugates. We compiled a set of peptides derived from the known hOGT substrate proteins RB2, TAB1, CK2, and KER, as well as a previously published hOGT sequon[38] (Table 1). The topology of the heptapeptides in the 7-S5C subseries (19–23) was chosen to replicate that of the peptide 5. The nonapeptides 9-S5C (24–26) were designed with a centrally located Cys. […] The TEC reaction of allyl-UDP 4 with all substrates worked routinely well to give an array of the novel S-linked UDP–peptide conjugates 29–38 (Table 1, Table S1) that were evaluated by the modified FP assay (Table 1, Figure 5).
Fluorescence polarimetry measurements […]
probe (125 nM) in 0.1 M Tris-HCl pH 7.5, 0.15 M NaCl, 0.5 mM TCEP and 5% DMSO in a total volume of 25 µL and incubated in the dark for 30 min before read-out.
Binding affinities for ligands were determined by 17 displacement. […] Fluorescence polarisation was measured on a PHERAStar plate reader (BMG LABTECH). Data analysis was performed in GraphPad Prism 7 and binding constants for the labelled 17 and 18 were determined by fitting a one-site – Total binding curve. […]

SH-SY5Y cells = experiment: total O-GlcNAcylation in cell culture, Western blot (SH-SY5Y); assay type: cell-based; settings: 24 h, concentrations up to 1 mM
hOGT [3] = molecular target: T1, hOGT; experiment: fluorometric hOGT activity assay (UDP formation)
[4] = molecular target: T2, human O-GlcNAc transferase (human, UniProt O15294 1-1046); experiment: fluorescence polarisation; competition: displacement of the fluorescent probe 17 from hOGT by unlabeled conjugates, Ki derived; settings: both partners purified
T2 sequence (looked up): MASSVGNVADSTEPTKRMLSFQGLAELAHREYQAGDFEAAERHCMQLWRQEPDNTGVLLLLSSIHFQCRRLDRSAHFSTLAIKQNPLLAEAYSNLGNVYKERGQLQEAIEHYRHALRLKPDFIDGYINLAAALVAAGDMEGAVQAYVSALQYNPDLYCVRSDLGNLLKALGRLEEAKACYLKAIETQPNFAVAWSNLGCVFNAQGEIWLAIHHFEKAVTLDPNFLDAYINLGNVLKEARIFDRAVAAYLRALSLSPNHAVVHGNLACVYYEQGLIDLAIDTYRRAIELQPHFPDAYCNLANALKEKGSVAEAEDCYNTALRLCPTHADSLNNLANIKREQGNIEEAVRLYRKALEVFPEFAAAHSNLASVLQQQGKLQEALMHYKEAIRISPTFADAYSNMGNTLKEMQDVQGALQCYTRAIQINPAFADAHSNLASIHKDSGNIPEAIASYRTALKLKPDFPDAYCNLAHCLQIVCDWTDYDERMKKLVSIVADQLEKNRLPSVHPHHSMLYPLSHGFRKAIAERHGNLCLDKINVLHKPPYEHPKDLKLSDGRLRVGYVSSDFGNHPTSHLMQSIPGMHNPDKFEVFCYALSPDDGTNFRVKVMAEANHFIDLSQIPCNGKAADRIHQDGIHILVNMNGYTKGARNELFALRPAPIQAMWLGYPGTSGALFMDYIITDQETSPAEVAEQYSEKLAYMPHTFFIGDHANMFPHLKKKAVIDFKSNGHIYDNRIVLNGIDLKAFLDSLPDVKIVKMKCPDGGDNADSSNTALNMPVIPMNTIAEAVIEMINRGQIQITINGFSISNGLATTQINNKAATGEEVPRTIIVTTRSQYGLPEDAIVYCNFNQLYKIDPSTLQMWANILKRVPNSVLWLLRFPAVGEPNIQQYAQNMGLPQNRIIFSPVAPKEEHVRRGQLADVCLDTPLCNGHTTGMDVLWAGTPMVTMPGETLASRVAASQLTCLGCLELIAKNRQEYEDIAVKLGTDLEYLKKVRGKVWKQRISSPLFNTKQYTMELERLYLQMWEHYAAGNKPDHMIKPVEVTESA

[5] = molecular target: T2, human O-GlcNAc transferase; experiment: cell-based or functional assay
[6] = molecular target: T2, human O-GlcNAc transferase; experiment: fluorescence polarisation; competition: displacement of the fluorescent probe 17 from hOGT by unlabeled conjugates, Ki derived; settings: both partners purified; remark: listed apart in the source
[7] = molecular target: T2, human O-GlcNAc transferase; experiment: fluorescence polarisation; direct binding of the fluorescein-labeled conjugates 17 and 18 to hOGT; settings: both partners purified

For CC(=O)N[C@H]1[C@@H](OP(=O)(O)OP(=O)(O)OC[C@H]2O[C@@H](n3ccc(=O)[nH]c3=O)[C@H](O)[C@@H]2O)O[C@H](CO)[C@@H](O)[C@@H]1O [UDP-GlcNAc], the Kd (OGT) is listed as 16 µM.

“TAT-VTPVC(S-propyl-UDP)TA S-linked UDP-peptide conjugate 13” gave an inhibition of hOGT activity in vitro, IC50 [1] of 5 µM.

With CC(=O)N[C@H](C(=O)N[C@H](C(=O)N1CCC[C@H]1C(=O)N[C@H](C(=O)N[C@@H](CSCCCOP(=O)(O)OP(=O)(O)OC[C@H]1O[C@@H](n2ccc(=O)[nH]c2=O)[C@H](O)[C@@H]1O)C(=O)N[C@@H](CCCNC(=N)N)C(=O)N[C@@H](C)C(N)=O)C(C)C)[C@@H](C)O)C(C)C [compound 32] (Ac-VTPVC(Propyl(3-UDP))RA-NH2) the Ki (hOGT [2]) was 1.3 ± 0.5 µM.

For CC(=O)N[C@@H]1[C@@H](O)[C@H](O)[C@@H](CO)S[C@@H]1OP(=O)(O)OP(=O)(O)OC[C@H]1O[C@@H](n2ccc(=O)[nH]c2=O)[C@H](O)[C@@H]1O [UDP-5S-GlcNAc, reference compound], the Ki (hOGT [2]) was 5 ± 2 µM.

With CC(=O)N[C@@H](Cc1ccc(O)cc1)C(=O)NCC(=O)N[C@@H](CCCNC(=N)N)C(=O)N[C@@H](CCCCN)C(=O)N[C@@H](CCCCN)C(=O)N[C@@H](CCCNC(=N)N)C(=O)N[C@@H](CCCNC(=N)N)C(=O)N[C@@H](CCC(N)=O)C(=O)N[C@@H](CCCNC(=N)N)C(=O)N[C@@H](CCCNC(=N)N)C(=O)N[C@@H](CCCNC(=N)N)C(=O)NCCOCCOCC(=O)N[C@H](C(=O)N[C@H](C(=O)N1CCC[C@H]1C(=O)N[C@H](C(=O)N[C@@H](CSCCCOP(=O)(O)OP(=O)(O)OC[C@H]1O[C@@H](n2ccc(=O)[nH]c2=O)[C@H](O)[C@@H]1O)C(=O)N[C@H](C(=O)N[C@@H](C)C(N)=O)[C@@H](C)O)C(C)C)[C@@H](C)O)C(C)C [compound 13] the “effect on total O-GlcNAcylation in cell cultures” value (SH-SY5Y cells) was “neither 11 nor 13 had a noticeable effect” and the IC50 (hOGT [3]) was 5 µM.

B1: S-linked UDP-peptide conjugate 33, PVFTC(S-propyl-UDP)RS (peptide)
peptide: PVFTC(S‑propyl‑UDP)RS
B1 gave a Ki [4] of 12.5 ± 7 µM.

B2: S-linked UDP-peptide conjugate 30, SVPYC(S-propyl-UDP)SA (peptide)
peptide: SVPYC(S‑propyl‑UDP)SA
With B2 the Ki [4] was 2.3 ± 1.6 µM.

B3: S-linked UDP-peptide conjugate 6, VTPVC(S-propyl-UDP)TA (peptide)
peptide: VTPVC(S‑propyl‑UDP)TA
In the case of B3, the “inhibition of hOGT activity, fluorometric OGT activity assay, IC50” value [5] is reported as 2 µM and the Ki [4] is reported as 1.3 ± 0.8 µM.

B4: O-linked UDP-peptide conjugate 1, VTPVS(O-propyl-UDP)TA (peptide)
peptide: VTPVS(O‑propyl‑UDP)TA
With B4 the Ki [6] was 7 ± 2 µM.

B5: S-linked UDP-peptide conjugate 31, VTPVC(S-propyl-UDP)SA (peptide)
peptide: VTPVC(S‑propyl‑UDP)SA
Work on B5 yielded a Ki [4] of 1.2 ± 1.3 µM.

B6: S-linked UDP-peptide conjugate 37, PVC(S-propyl-UDP)TATHSLSRLH (peptide)
peptide: PVC(S‑propyl‑UDP)TATHSLSRLH
B6 showed a Ki [4] of 80 ± 46 µM.

B7: S-linked UDP-peptide conjugate 34, VTPVC(S-propyl-UDP)TATH (peptide)
peptide: VTPVC(S‑propyl‑UDP)TATH
Molecule B7 has a Ki [4] of 12.7 ± 2.3 µM.

B8: S-linked UDP-peptide conjugate 36, PVFTC(S-propyl-UDP)RSAA (peptide)
peptide: PVFTC(S‑propyl‑UDP)RSAA
In the case of B8, the Ki [4] is reported as 56 ± 32 µM.

B9: S-linked UDP-peptide conjugate 35, SVPYC(S-propyl-UDP)SAQS (peptide)
peptide: SVPYC(S‑propyl‑UDP)SAQS
For B9, the Ki [4] was 15 ± 2.3 µM.

B10: 5(6)-fluorescein carboxamide (Floc) labeled S-linked UDP-peptide conjugate 17 (peptide)
chain: {Floc-Ahx}-VTPVC(S‑propyl‑UDP)TA
B10 gave a Kd [7] of 1.6 µM.

B11: S-linked UDP-peptide conjugate 29, VPTVC(S-propyl-UDP)TA (peptide)
chain: VPTVC(S‑propyl‑UDP)TA
With B11 the Ki [4] was 12.8 ± 4.5 µM.

B12: S-linked UDP-peptide conjugate 38, KENSPAVTPVC(S-propyl-UDP)TA (peptide)
peptide: KENSPAVTPVC(S‑propyl‑UDP)TA
In the case of B12, the Ki [4] is reported as 1.8 ± 1.3 µM.
